Molecular target: NKG2D receptor on primary human NK cells (human (endogenous in primary NK cells)) (UniProt P26718)
UniProt P26718, sequence (P26718 whole entry): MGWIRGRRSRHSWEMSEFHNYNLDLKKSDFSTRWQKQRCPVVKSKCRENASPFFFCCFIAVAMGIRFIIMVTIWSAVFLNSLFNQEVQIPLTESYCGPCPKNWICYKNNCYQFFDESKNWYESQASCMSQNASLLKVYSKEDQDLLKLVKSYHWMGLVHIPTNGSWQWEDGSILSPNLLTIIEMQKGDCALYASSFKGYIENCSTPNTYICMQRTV

Q: Which NK cell cytolytic activity (7-AAD uptake of CD56- target cells), fresh NK cells with target cells 4 h at 10 to 1 effector to target ratio; parental C1R control approximately 15% does the source give for “Full-length human MICA*002 on C1R-MICA*002 cells (from UniProt Q29983 24-383) (ligand)” here?
A: The NK cell cytolytic activity (7-AAD uptake of CD56- target cells), fresh NK cells with target cells 4 h at 10 to 1 effector to target ratio; parental C1R control approximately 15% was 40%.

— PMC6685158
